Source: publication PMC9704708 (Proceedings of the National Academy of Sciences of the …, 2022)

How the values were obtained:
[1] = molecular target: cytochrome c endogenous in Vero cells (Chlorocebus (African green monkey), …, UniProt G4XXN2); test: immunostaining of cells or tissue
[2] = molecular target: cytochrome c endogenous in bovine aortic endothelial cells (Bos taurus, UniProt P62894); test: immunostaining of cells or tissue
[3] = molecular target: T1, cytochrome c endogenous in mouse melanoma B16-F1 cells (Mus musculus, UniProt P62897); test: immunostaining of cells or tissue
T1 sequence (P62897 whole entry): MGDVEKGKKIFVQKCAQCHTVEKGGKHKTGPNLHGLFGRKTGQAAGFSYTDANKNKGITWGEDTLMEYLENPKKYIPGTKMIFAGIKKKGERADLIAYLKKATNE

[4] = molecular target: cytochrome c endogenous in human cells (HeLa, IMR-90) (Homo sapiens, UniProt P99999); test: immunostaining of cells or tissue
Sequence of cytochrome c endogenous in human cells (HeLa, IMR-90) (P99999 whole entry): as the sequence (P62897 whole entry) above, with V12I, Q13M, A16S, A45P, F47Y, D51A, T59I, A84V, G90E counted along it

[5] = molecular target: T1, cytochrome c endogenous in mouse …; test: flow cytometry on cells
[6] = molecular target: 1–65 CNBr-cleaved peptide of cytochrome c (Equus caballus (assumed), UniProt P00004); test: ELISA
Sequence of 1–65 CNBr-cleaved peptide of cytochrome c (P00004 2-66): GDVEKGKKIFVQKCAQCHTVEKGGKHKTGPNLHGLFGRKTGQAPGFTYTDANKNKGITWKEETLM

Measured: binding result

Sequence of cytochrome c endogenous in bovine aortic endothelial cells (P62894 whole entry): as the sequence (P62897 whole entry) above, with A45P, D63E, A93E counted along it

B1: monoclonal antibody 1D3 (original, hybridoma-derived) (antibody, V domains shown)
VH: QVQLQQPGAELVKPGASVKMSCKASGYTFTSNNMHWVKQTPGQGLEWIGGLYPGNGDTSYNQKFKGKATLTADKSSSTAYMQLSSLTSGDSAVYYCARGIRDFFAMDYWGQGTSVTVSS
VL: DIQMTQSPASQSASLGESVTITCLASQTIGTWLAWYQQKPGKSPQLLIYAATSLADGVPSRFSGSGSGTKFSFKISSLQAEDFVSYYCQQLYSTPLTFGAGTKLELK
binds: [1] | [2] | [3] | [4]

B2: recombinant monoclonal antibody R1D3 (antibody, V domains shown)
VH: B1 VH
VL: B1 VL
binds: [5] | [1] | [6]
